Experimental data taken from patent publication US20040209839, “Human peroxisome proliferator activated receptor gamma” (published 2004).

Legend:
hPPARgamma = hPPARgamma (Homo sapiens, UniProt P37231 SEQ:20-494); assay: EMSA; hPPARgamma alone, no complex; settings: tags: T3 coupled reticulocyte lysate (Promega), label: 32P end
[1] = biological target: hPPARgamma/hRXRalpha heterodimer (Homo sapiens, UniProt P37231;P19793 P37231:31-505,P19793:1-462); assay: EMSA; strong retarded complex; settings: tags: hPPARgamma in vitro translated, hRXRalpha baculovirus/Sf21 expressed, label: 32P end
Chain of hPPARgamma/hRXRalpha heterodimer (P37231 31-505, chain 1 of 2): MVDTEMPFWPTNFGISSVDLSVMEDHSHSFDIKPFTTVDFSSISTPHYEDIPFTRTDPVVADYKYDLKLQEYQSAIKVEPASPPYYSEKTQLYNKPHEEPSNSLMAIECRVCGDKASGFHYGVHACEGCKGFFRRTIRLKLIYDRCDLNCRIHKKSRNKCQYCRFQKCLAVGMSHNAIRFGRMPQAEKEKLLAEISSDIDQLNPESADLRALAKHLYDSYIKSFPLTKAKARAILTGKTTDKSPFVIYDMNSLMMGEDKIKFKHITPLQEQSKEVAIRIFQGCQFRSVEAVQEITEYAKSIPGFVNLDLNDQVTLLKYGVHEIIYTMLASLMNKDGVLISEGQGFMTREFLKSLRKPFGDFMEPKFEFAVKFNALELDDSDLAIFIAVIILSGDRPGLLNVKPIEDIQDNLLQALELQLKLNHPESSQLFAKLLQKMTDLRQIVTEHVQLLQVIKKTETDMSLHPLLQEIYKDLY
Chain of hPPARgamma/hRXRalpha heterodimer (P19793 whole entry, chain 2 of 2): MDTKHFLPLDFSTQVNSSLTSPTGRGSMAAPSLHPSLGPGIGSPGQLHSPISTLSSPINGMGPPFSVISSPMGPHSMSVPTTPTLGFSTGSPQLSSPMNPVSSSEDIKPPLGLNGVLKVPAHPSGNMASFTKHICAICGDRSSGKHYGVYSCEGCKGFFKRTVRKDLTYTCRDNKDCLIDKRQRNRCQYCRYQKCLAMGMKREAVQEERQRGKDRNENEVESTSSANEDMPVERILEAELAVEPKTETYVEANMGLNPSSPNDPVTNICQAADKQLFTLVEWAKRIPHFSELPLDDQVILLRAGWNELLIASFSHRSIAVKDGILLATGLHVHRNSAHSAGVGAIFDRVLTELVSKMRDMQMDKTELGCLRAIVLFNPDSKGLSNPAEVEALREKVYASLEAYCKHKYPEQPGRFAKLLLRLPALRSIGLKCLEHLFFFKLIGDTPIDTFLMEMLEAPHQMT

Chain of hPPARgamma (P37231 31-505): as the sequence (P37231 31-505, chain 1 of 2) above

Binder	binding result (hPPARgamma; 5' CTAG overhangs)	binding result ([1]; 5' CTAG overhangs)	binding result (hPPARgamma)	binding result [1]
AOX PPRE (dsDNA) DNA 1: CTAGCGATATCATGACCTTTGTCCTAGGCCTC DNA 2: CTAGGAGGCCTAGGACAAAGGTCATGATATCG	no binding	binds	–	–
ApoA1 A site (dsDNA) DNA 1: GATCCCCACTGAACCCTTGACCCCTGCCCTGCAGCA DNA 2: TGCTGCAGGGCAGGGGTCAAGGGTTCAGTGGGGATC	–	–	no binding	binds
hydratase (bifunctional enzyme) PPRE (dsDNA) DNA 1: GATCCCTTTGACCTATTGAACTATTACCTACATTA DNA 2: TAATGTAGGTAATAGTTCAATAGGTCAAAGGGATC	–	–	no binding	binds
